Assay results as given in publication PMC7961821, “Comparing Ligninolytic Capabilities of Bacterial and Fungal Dye-Decolorizing Peroxidases and Class-II Peroxidase-Catalases” (International Journal of Molecular Sciences, 2021).

Key:
Assay in all cases: purified protein
purified protein [1] = substrate: COc1cc(C(O)C(CO)Oc2ccccc2OC)ccc1O; details: 1 mM H2O2, 100 mM tartrate, pH 3, 25 °C, pH 3.0
purified protein [2] = substrate: COc1cccc(OC)c1O
purified protein [3] = substrate: Nc1c(S(=O)(=O)O)cc(Nc2cccc(S(=O)(=O)CCOS(=O)(=O)O)c2)c2c1C(=O)c1ccccc1C2=O; details: 1 mM H2O2, optimal pH (not given for RB19), 25 °C
purified protein [4] = substrate: CCn1c(=NN=c2sc3cc(S(=O)(=O)O)ccc3n2CC)sc2cc(S(=O)(=O)O)ccc21; type: biochemical, Amycolatopsis sp. ATCC 39116; details: 1 mM H2O2, pH 5, 25 °C
purified protein [5] = substrate: COc1ccc(C(O)C(CO)Oc2ccccc2OC)cc1OC; type: biochemical, Auricularia auricula-judae; details: 1 mM H2O2, 100 mM tartrate, pH 3, 25 °C
purified protein [6] = substrate: COc1ccc(C(O)C(CO)Oc2ccccc2OC)cc1OC; type: biochemical, Pleurotus eryngii; details: 1 mM H2O2, 100 mM tartrate, pH 3, 25 °C
purified protein [7] = substrate: COc1ccc(C(O)C(CO)Oc2ccccc2OC)cc1OC; type: biochemical, Phanerodontia chrysosporium; details: 1 mM H2O2, 100 mM tartrate, pH 3, 25 °C
purified protein [8] = substrate: CCn1c(=NN=c2sc3cc(S(=O)(=O)O)ccc3n2CC)sc2cc(S(=O)(=O)O)ccc21; type: biochemical, Thermomonospora curvata; details: 1 mM H2O2, pH 3, 25 °C

B1: AspDyP2 (Amycolatopsis sp. ATCC 39116) (protein)
chain: MPVDLSTTLSWKSATGEAATMLDELQPNILKAHVRDRLTVLFLGFGDAAEARTFLNGLSGLMKSARTHLQEVEAHKLTKAVGTPYLGVGLTAHGYATLGVTAPADPSFTAGAKAAVEKLADPAVTEWEGHYQQTIDAVLLLGDATAGPVRTLRRQVEALRPASVTVVGEESGLGLANANGDGIEHFGYVDGRSQPLFLTEDVDAERDTTDGVNDWDPSAPLEQVLVPDPAAPDPTVHFGSYFVFRKLEQNVRLFKEAERDLAHDLGLRGEDRERAGAMLVGRFEDGTPLTAQSAPGSHHPVGNDFSYDSDKLGQKCPFHAHIRKTNPRGSGGAEAPEEERKHLMARRGQTYGRRHDDPNADLPPRLRPAKDVGLLFMAFNSNLGNQFEFTQQIWANNPAFPFPPDGSQPGLDPVIGQGARAPQKYAPEWGHNNVAEATDPIPQAVTMKGGEYFFMPSLAFLRSL
notes: mature protein, codon-optimised, N-terminal His tag (pET28a), soluble from E. coli BL21(DE3) pLysS, heme enzyme
For B1, the Km (purified protein [1]) was 179 ± 39 µM, the kcat (purified protein [1]) was 12.0 ± 1.2 s⁻¹ and the kcat/Km (purified protein [1]) was 67000 ± 8500 M⁻¹ s⁻¹. For the same protein, the Km (purified protein [2]; 1 mM H2O2, pH 4, 25 °C, pH 4.0) was 177 ± 34 µM, the kcat (purified protein [2]; 1 mM H2O2, pH 4, 25 °C, pH 4.0) was 94.0 ± 4.6 s⁻¹ and the kcat/Km (purified protein [2]; 1 mM H2O2, pH 4, 25 °C, pH 4.0) was 530000 ± 80000 M⁻¹ s⁻¹. It also gave a Km (purified protein [3]) of 20 ± 4 µM, a kcat (purified protein [3]) of 26.0 ± 2.0 s⁻¹ and a kcat/Km (purified protein [3]) of 1.3e+06 ± 200000 M⁻¹ s⁻¹. For the same protein, the Km (purified protein [4]) was 165 ± 18 µM, the kcat (purified protein [4]) was 30.0 ± 0.9 s⁻¹ and the kcat/Km (purified protein [4]) was 180000 ± 20000 M⁻¹ s⁻¹.

B2: AauDyP (Auricularia auricula-judae) (protein)
chain: ATSLNTDDIQGDILVGMHKQKQLFYFFAINDPATFKTHLASDIAPVVASVTQLSNVATQPLVALNIAFSNTGLLALGVTDNLGDSLFANGQAKDATSFKESTSSWVPQFAGTGIHGVIILASDTTDLIDQQVASIESTFGSSISKLYSLSASIRPGNEAGHEMFGFLDGIAQPAINGFNTPLPGQNIVDAGVIITGATNDPITRPSWAVGGSFLAFRQLEQLVPEFNKYLLDNAPAGSGSLQARADLLGARMVGRWKSGAPIDLTPTADDPALGADAQRNNNFTYSHAGFDLGSDQSHCPFSAHIRKTRPRADLGGSLTPPNLSAGANSIMRSGIPYGPEVTSAESASNTTTQERGLAFVAYQAQLSQGFHFLQQTWADNANFPPGKTPATVGLDPIIGQNNGQPRVVNGLLPSNSSASLSIPQFVVSHGGEYFFSPPISAIGGRLSA
notes: heme enzyme
In the case of B2, the Km (purified protein [5]) is reported as 448 ± 59 µM, the kcat (purified protein [5]) is reported as 0.3 ± 0.01 s⁻¹ and the kcat/Km (purified protein [5]) is reported as 700 ± 100 M⁻¹ s⁻¹.

B3: PerVPL (Pleurotus eryngii) (protein)
chain: ATCDDGRTTANAACCILFPILDDIQENLFDGAQCGEEVHESLRLTFHDAIGFSPTLGGGGADGSIIAFDTIETNFPANAGIDEIVSAQKPFVAKHNISAGDFIQFAGAVGVSNCPGGVRIPFFLGRPDAVAASPDHLVPEPFDSVDSILARMGDAGFSPVEVVWLLASHSIAAADKVDPSIPGTPFDSTPGVFDSQFFIETQLKGRLFPGTADNKGEAQSPLQGEIRLQSDHLLARDPQTACEWQSMVNNQPKIQNRFAATMSKMALLGQDKTKLIDCSDVIPTPPALVGAAHLPAGFSLSDVEQACAATPFPALTADPGPVTSVPPVPGS
notes: heme enzyme
B3 was tested, and the Km (purified protein [1]) was 206 ± 17 µM, the kcat (purified protein [1]) was 2.7 ± 0.1 s⁻¹ and the kcat/Km (purified protein [1]) was 13200 ± 700 M⁻¹ s⁻¹. The Km (purified protein [6]) was 659 ± 80 µM, the kcat (purified protein [6]) was 1.2 ± 0.1 s⁻¹ and the kcat/Km (purified protein [6]) was 1800 ± 100 M⁻¹ s⁻¹.

B4: PchLiPA (Phanerodontia chrysosporium) (protein)
chain: ATCSNGKTVGDASCCAWFDVLDDIQQNLFHGGQCGAEAHESIRLVFHDSIAISPAMEAQGKFGGGGADGSIMIFDDIETAFHPNIGLDEIVKLQKPFVQKHGVTPGDFIAFAGRVALSNCPGAPQMNFFTGRAPATQPAPDGLVPEPFHTVDQIINRVNDAGEFDELELVWMLSAHSVAAVNDVDPTVQGLPFDSTPGIFDSQFFVETQLRGTAFPGSGGNQGEVESPLPGEIRIQSDHTIARDSRTACEWQSFVNNQSKLVDDFQFIFLALTQLGQDPNAMTDCSDVIPQSKPIPGNLPFSFFPAGKTIKDVEQACAETPFPTLTTLPGPETSVQRIPPPPGA
notes: heme enzyme
B4 was tested, and the Km (purified protein [1]) was 208 ± 41 µM, the kcat (purified protein [1]) was 1.3 ± 0.1 s⁻¹ and the kcat/Km (purified protein [1]) was 6500 ± 700 M⁻¹ s⁻¹. It also gave a Km (purified protein [7]) of 88 ± 3 µM, a kcat (purified protein [7]) of 1.3 ± 0.2 s⁻¹ and a kcat/Km (purified protein [7]) of 14700 ± 400 M⁻¹ s⁻¹.

B5: TcuDyP (Thermomonospora curvata DSM 43183) (protein)
chain: SEERAAGARPSATQTTGTATEPFHGPHQAGIATPPQAHAVFLGLDLRKGTGRKELGRLMRLLTDDARRLTQGRPALADPEPDLAPLPSRLTFTFGFGPGLFKAAGLEKQRPEGLRPLPPFKVDRLEDRWSGGDLLVQICCDDPITLAHALRMTVKDARAFTRVRWVQRGFRRSPGVQSSGATQRNLMGQLDGTVNPVPGTADFDQAVWVQDGPEWLRGGTTLVLRRIRMELEKWDEADPAGKEFAVGRRLTSGAPLTGRHEHDEPDFDAVDSAGFPVIAENAHIRLAHVDSPRLRMLRRPYNYDEGLTADGRSDAGLLFAAYQADIDRQFIPVQRRLDEGGDLLNLWTTPIGSAVFAIPPGCDENGWIGQGLLG
notes: mature protein without signal peptide, codon-optimised, N-terminal His tag (pET28a), soluble from E. coli BL21(DE3) pLysS, heme enzyme
For B5, the Km (purified protein [1]) was 80 ± 16 µM, the kcat (purified protein [1]) was 1.1 ± 0.1 s⁻¹ and the kcat/Km (purified protein [1]) was 14200 ± 1800 M⁻¹ s⁻¹. For the same protein, the Km (purified protein [2]; 1 mM H2O2, pH 3, 25 °C, pH 3.0) was 2 ± 0.3 µM, the kcat (purified protein [2]; 1 mM H2O2, pH 3, 25 °C, pH 3.0) was 2.7 ± 0.4 s⁻¹ and the kcat/Km (purified protein [2]; 1 mM H2O2, pH 3, 25 °C, pH 3.0) was 1.3e+06 ± 100000 M⁻¹ s⁻¹. For the same protein, the Km (purified protein [3]) was 7 ± 2 µM, the kcat (purified protein [3]) was 1.3 ± 0.1 s⁻¹ and the kcat/Km (purified protein [3]) was 200000 ± 40000 M⁻¹ s⁻¹. The Km (purified protein [8]) was 309 ± 95 µM, the kcat (purified protein [8]) was 53.0 ± 6.1 s⁻¹ and the kcat/Km (purified protein [8]) was 170000 ± 30000 M⁻¹ s⁻¹.
